Target: HLA-A*02:01 (Homo sapiens, UniProt P04439, D140Y/D185E/D98H/E176V/E277Q/G131W/G231S/I119V/I121R/I166T/I218V/L300P/L318F/N151K/N90K/P208A/P217A/Q86G/Q94H/R138H/R169H/T345S)
Test: MHC binding assay: UV-ligand exchange with beta2m ELISA (peptide exchange yield)
Settings: binding to HLA-A*02:01
Outline: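 Values give exchange yield, measured by β2m ELISA: 100-fold-diluted monomers bound to streptavidin plates (1h, 37° C), probed with HRP anti-β2m at 2 ug/ml and read at 450 nm after TMB. Monomers came from UV-triggered cleavage of a photolabile peptide and exchange for the test peptide.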

Substance | Peptide exchange (MHC class I binding score, peptide exchange yield)
314 (ALIAEGIALV; listed as Homo sapiens) [compound 314] | “+++” (≥50 = +++)
315 (YLQDVVEQA; listed as Homo sapiens) [compound 315] | “+++” (≥50 = +++)
316 (ILLERLWYV; listed as Homo sapiens) [compound 316] | “+++” (≥50 = +++)
317 (SLAALVVHV; listed as Homo sapiens) [compound 317] | “+++” (≥50 = +++)
318 (GLINTGVLSV; listed as Homo sapiens) [compound 318] | “++” (≥20% = ++)
319 (SLEPQIQPV; listed as Homo sapiens) [compound 319] | “++” (≥20% = ++)
320 (KMFEFVEPLL; listed as Homo sapiens) [compound 320] | “++++” (≥75% = ++++)
321 (GLFEDVTQPGILL; listed as Homo sapiens) [compound 321] | “++++” (≥75% = ++++)
322 (TLMTSLPAL; listed as Homo sapiens) [compound 322] | “+++” (≥50 = +++)
324 (FLYDEIEAEV; listed as Homo sapiens) [compound 324] | “+++” (≥50 = +++)
325 (FIMPATVADATAV; listed as Homo sapiens) [compound 325] | “+++” (≥50 = +++)
326 (FLPEALDFV; listed as Homo sapiens) [compound 326] | “+++” (≥50 = +++)
327 (GLAPFTEGISFV; listed as Homo sapiens) [compound 327] | “+++” (≥50 = +++)
328 (ALNDQVFEI; listed as Homo sapiens) [compound 328] | “+++” (≥50 = +++)
329 (FLVTLNNVEV; listed as Homo sapiens) [compound 329] | “++++” (≥75% = ++++)
330 (QLALKVEGV; listed as Homo sapiens) [compound 330] | “+++” (≥50 = +++)
331 (KVDTVWVNV; listed as Homo sapiens) [compound 331] | “+++” (≥50 = +++)
332 (YLISELEAA; listed as Homo sapiens) [compound 332] | “+++” (≥50 = +++)
333 (FLPDANSSV; listed as Homo sapiens) [compound 333] | “++” (≥20% = ++)
334 (TLTKVLVAL; listed as Homo sapiens) [compound 334] | “+++” (≥50 = +++)
335 (YSLSSVVTV; listed as Homo sapiens) [compound 335] | “+++” (≥50 = +++)

Substance | Peptide exchange (MHC class I binding score, peptide exchange yield)
336 (ILLTAIVQV; listed as Homo sapiens) [compound 336] | “+++” (≥50 = +++)
337 (HLLSELEAAPYL; listed as Homo sapiens) [compound 337] | “++++” (≥75% = ++++)
339 (GLWEIENNPTVKA; listed as Homo sapiens) [compound 339] | “++++” (≥75% = ++++)
340 (ALLSMTFPL; listed as Homo sapiens) [compound 340] | “++++” (≥75% = ++++)
341 (SQIALNEKLVNL; listed as Homo sapiens) [compound 341] | “+++” (≥50 = +++)
342 (HIYDKVMTV; listed as Homo sapiens) [compound 342] | “+++” (≥50 = +++)
343 (SLLEVNEESTV; listed as Homo sapiens) [compound 343] | “+++” (≥50 = +++)
344 (YLQDQHLLLTV; listed as Homo sapiens) [compound 344] | “+++” (≥50 = +++)
345 (VIWKALIHL; listed as Homo sapiens) [compound 345] | “+++” (≥50 = +++)
346 (LLDSKVPSV; listed as Homo sapiens) [compound 346] | “+++” (≥50 = +++)
347 (SLFKHDPAAWEA; listed as Homo sapiens) [compound 347] | “++++” (≥75% = ++++)
348 (ILLDVKTRL; listed as Homo sapiens) [compound 348] | “++++” (≥75% = ++++)
349 (SLTEYLQNV; listed as Homo sapiens) [compound 349] | “++++” (≥75% = ++++)
350 (ALLDVTHSELTV; listed as Homo sapiens) [compound 350] | “+++” (≥50 = +++)
351 (SLIPNLRNV; listed as Homo sapiens) [compound 351] | “+++” (≥50 = +++)
352 (SLLELLHIYV; listed as Homo sapiens) [compound 352] | “+++” (≥50 = +++)
353 (YLFEMDSSL; listed as Homo sapiens) [compound 353] | “++” (≥20% = ++)
354 (LILEGVDTV; listed as Homo sapiens) [compound 354] | “++” (≥20% = ++)
355 (SIQQSIERLLV; listed as Homo sapiens) [compound 355] | “++” (≥20% = ++)
356 (KLLGKLPEL; listed as Homo sapiens) [compound 356] | “+++” (≥50 = +++)
357 (SMHDLVLQV; listed as Homo sapiens) [compound 357] | “+++” (≥50 = +++)

Continued, values first:

Peptide exchange (MHC class I binding score, peptide exchange yield) | Substance
“++++” (≥75% = ++++) | 358 (ALDEYTSEL; listed as Homo sapiens) [compound 358]
“+++” (≥50 = +++) | 359 (YLLPESVDL; listed as Homo sapiens) [compound 359]
“+++” (≥50 = +++) | 361 (ALYELEGTTV; listed as Homo sapiens) [compound 361]
“+++” (≥50 = +++) | 362 (TLYGLSVLL; listed as Homo sapiens) [compound 362]
“++” (≥20% = ++) | 363 (KVLDVSDLESV; listed as Homo sapiens) [compound 363]
“+++” (≥50 = +++) | 364 (LLQNEQFEL; listed as Homo sapiens) [compound 364]
“+++” (≥50 = +++) | 365 (YVIDQGETDVYV; listed as Homo sapiens) [compound 365]
“+++” (≥50 = +++) | 366 (RLLDMGETDLML; listed as Homo sapiens) [compound 366]
“+++” (≥50 = +++) | 367 (SLQNHNHQL; listed as Homo sapiens) [compound 367]
“+++” (≥50 = +++) | 369 (GLFPEHLIDV; listed as Homo sapiens) [compound 369]
“+++” (≥50 = +++) | 370 (SLLQDLVSV; listed as Homo sapiens) [compound 370]
“++++” (≥75% = ++++) | 371 (FLQAHLHTA; listed as Homo sapiens) [compound 371]
“++” (≥20% = ++) | 372 (TMLLNIPLV; listed as Homo sapiens) [compound 372]
“++” (≥20% = ++) | 373 (SLLEDKGLAEV; listed as Homo sapiens) [compound 373]
“++” (≥20% = ++) | 374 (FLLQQHLISA; listed as Homo sapiens) [compound 374]
“++” (≥20% = ++) | 375 (SLTETIEGV; listed as Homo sapiens) [compound 375]
“++” (≥20% = ++) | 376 (AMFESSQNVLL; listed as Homo sapiens) [compound 376]
“++” (≥20% = ++) | 377 (FLLDSSASV; listed as Homo sapiens) [compound 377]
“+++” (≥50 = +++) | 378 (ALGYFVPYV; listed as Homo sapiens) [compound 378]
“++” (≥20% = ++) | 379 (IMEGTLTRV; listed as Homo sapiens) [compound 379]
“++” (≥20% = ++) | 380 (TLIEDEIATI; listed as Homo sapiens) [compound 380]
“++” (≥20% = ++) | 381 (FIDEAYVEV; listed as Homo sapiens) [compound 381]
“++” (≥20% = ++) | 382 (ALQNYIKEA; listed as Homo sapiens) [compound 382]
“+++” (≥50 = +++) | 383 (ALLELENSVTL; listed as Homo sapiens) [compound 383]

From patent US10464978B2, “Peptides and combination of peptides for use in immunotherapy against ovarian cancer and other cancers” (immatics biotechnologies GmbH, priority 2015, dated 2019)
